The source of these data is paper PMC5476561.

Broadly, the stoichiometry N is the number of molecules, sites or subunits per partner or assembly.

The target of experiment [1] is SpyCatcher-AP205. Description: reducing SDS-PAGE of the covalent conjugate.
Experiment [2] concerns the target Pfs25-IMX313-CTag (Plasmodium falciparum) (UniProt P13829). Description: non-reducing SDS-PAGE; Coomassie-stained gel, non-reduced against reduced sample.
Experiment [3] shares this target. Nature of the experiment: SEC. (SEC sorts molecules by how far they enter the pores of the column.)

The substance “Pfs25-SpyTag-CTag (from UniProt P13829 22-193)” displayed a percent coupling (coat protein molecules linked to Pfs25-SpyTag) in experiment [1] of 100%. For “Pfs25-IMX313-CTag (from UniProt P13829 22-193)”, the stoichiometry N in experiment [2] and in experiment [3] was 7 in each case.
